Results: PMC7570871, “Evaluation of a New ^177Lu-Labeled Somatostatin Analog for the Treatment of Tumors Expressing Somatostatin Receptor Subtypes 2 and 5” (Molecules, 2020)

Assay: in vivo
Details: female, athymic Nude-Foxn1nu/Foxn1+, mouse, 100 pmol, total radioactivity
Protocol: The Veterinary Office (Department of Health) of the Cantonal Basel-Stadt approved the animal experiments (approval no. 2799) in accordance with the Swiss regulations for animal treatment. Female athymic Nude-Foxn1^nu/Foxn1^+ mice (Envigo, The Netherlands), 4–6 weeks old, were injected subcutaneously with 10^7 HEK-SST2 cells in the right shoulder and 10^7 HEK-SST5 cells in the left shoulder, freshly suspended in 100 μL sterile phosphate-buffered saline. The tumors were allowed to grow for 2–3 weeks.
At the selected time points, the mice were sacrificed and the organs of interest were collected, rinsed, blotted, weighed and counted in a γ-counter. The results are expressed as a percentage of injected activity per gram (%IA/g) obtained by extrapolation from counts of an aliquot taken from the injected solution as a standard.
At the preselected time points, the mice were sacrificed and the organs of interest were collected, rinsed, blotted, weighed and counted in a γ-counter. The results are expressed as a percentage of injected activity per gram (%IA/g) obtained by extrapolation from counts of an aliquot taken from the injected solution as a standard.

With CC(C)[C@@H]1NC(=O)[C@H](CCCCN)NC(=O)[C@@H](Cc2c[nH]c3ccccc23)NC(=O)[C@H](Cc2ccc(O)c(I)c2)NC(=O)[C@@H](NC(=O)[C@@H](Cc2ccc(N)c(I)c2)NC(=O)CN2CCN(CC(=O)O)CCN(CC(=O)O)CCN(CC(=O)O)CC2)CSSC[C@@H](C(=O)N[C@H](C(N)=O)[C@@H](C)O)NC1=O [[^177Lu]Lu-DOTA-ST8950, metal not drawn] as the compound, how does the tissue uptake at 168 h (Adrenal uptake) read?
The tissue uptake at 168 h was 1.84 ± 0.49 %ID/g.

And the tissue uptake at 1 h (Blood uptake)?
The tissue uptake at 1 h was 0.96 ± 0.23 %ID/g.

What about the tissue uptake at 4 h (Blood uptake) of the same compound?
Its tissue uptake at 4 h is 0.09 ± 0.03 %ID/g.

And the tissue uptake at 24 h (Blood uptake)?
The tissue uptake at 24 h was 0.02 %ID/g.

And the tissue uptake at 72 h (Blood uptake)?
The tissue uptake at 72 h was 0.01 %ID/g.

And the tissue uptake at 1 h (Bone (Femur) uptake)?
Its tissue uptake at 1 h is 0.74 ± 0.11 %ID/g.

And the tissue uptake at 4 h (Bone (Femur) uptake)?
The tissue uptake at 4 h was 0.49 ± 0.11 %ID/g.

What about the tissue uptake at 24 h (Femur uptake) of the same compound?
Its tissue uptake at 24 h is 0.3 ± 0.05 %ID/g.

And the tissue uptake at 72 h (Femur uptake)?
The tissue uptake at 72 h was 0.19 ± 0.05 %ID/g.

What about the tissue uptake at 168 h (Femur uptake) of the same compound?
Its tissue uptake at 168 h is 0.11 ± 0.01 %ID/g.

What about the tissue uptake at 1 h (Heart uptake) of the same compound?
Its tissue uptake at 1 h is 0.69 ± 0.09 %ID/g.

What about the tissue uptake at 4 h (Heart uptake) of the same compound?
The tissue uptake at 4 h was 0.17 ± 0.03 %ID/g.

What about the tissue uptake at 24 h (Heart uptake) of the same compound?
The tissue uptake at 24 h was 0.08 ± 0.01 %ID/g.

What about the tissue uptake at 72 h (Heart uptake) of the same compound?
Its tissue uptake at 72 h is 0.06 ± 0.02 %ID/g.

What about the tissue uptake at 168 h (Heart uptake) of the same compound?
Its tissue uptake at 168 h is 0.04 ± 0.01 %ID/g.

What about the tissue uptake at 1 h (Intestine uptake) of the same compound?
Its tissue uptake at 1 h is 1.95 ± 0.65 %ID/g.

What about the tissue uptake at 4 h (Intestine uptake) of the same compound?
Its tissue uptake at 4 h is 1.14 ± 0.42 %ID/g.

And the tissue uptake at 24 h (Intestine uptake)?
Its tissue uptake at 24 h is 0.51 ± 0.09 %ID/g.

What about the tissue uptake at 72 h (Intestine uptake) of the same compound?
The tissue uptake at 72 h was 0.28 ± 0.06 %ID/g.

And the tissue uptake at 168 h (Intestine uptake)?
The tissue uptake at 168 h was 0.12 ± 0.02 %ID/g.

What about the tissue uptake at 1 h (Kidney uptake) of the same compound?
The tissue uptake at 1 h was ~10 %ID/g.

And the tissue uptake at 4 h (Kidney uptake)?
Its tissue uptake at 4 h is ~10 %ID/g.

What about the tissue uptake at 24 h (Kidney uptake) of the same compound?
Its tissue uptake at 24 h is 5.99 ± 0.41 %ID/g.

What about the tissue uptake at 72 h (Kidney uptake) of the same compound?
The tissue uptake at 72 h was 3.2 ± 0.84 %ID/g.

And the tissue uptake at 168 h (Kidney uptake)?
The tissue uptake at 168 h was 1.42 ± 0.38 %ID/g.

And the tissue uptake at 1 h (Liver uptake)?
The tissue uptake at 1 h was 2.6 ± 0.42 %ID/g.

What about the tissue uptake at 4 h (Liver uptake) of the same compound?
The tissue uptake at 4 h was 2.19 ± 0.48 %ID/g.

What about the tissue uptake at 24 h (Liver uptake) of the same compound?
Its tissue uptake at 24 h is 1.23 ± 0.16 %ID/g.

What about the tissue uptake at 72 h (Liver uptake) of the same compound?
Its tissue uptake at 72 h is 0.85 ± 0.21 %ID/g.

What about the tissue uptake at 1 h (Lung uptake) of the same compound?
The tissue uptake at 1 h was 3.9 ± 0.84 %ID/g.

What about the tissue uptake at 4 h (Lung uptake) of the same compound?
Its tissue uptake at 4 h is 1.69 ± 0.4 %ID/g.

And the tissue uptake at 24 h (Lung uptake)?
Its tissue uptake at 24 h is 1.16 ± 0.1 %ID/g.

What about the tissue uptake at 72 h (Lung uptake) of the same compound?
Its tissue uptake at 72 h is 0.46 ± 0.08 %ID/g.

And the tissue uptake at 168 h (Lung uptake)?
The tissue uptake at 168 h was 0.23 ± 0.09 %ID/g.

What about the tissue uptake at 1 h (Muscle uptake) of the same compound?
The tissue uptake at 1 h was 0.3 ± 0.07 %ID/g.

And the tissue uptake at 4 h (Muscle uptake)?
The tissue uptake at 4 h was 0.1 ± 0.02 %ID/g.

And the tissue uptake at 24 h (Muscle uptake)?
Its tissue uptake at 24 h is 0.06 %ID/g.

What about the tissue uptake at 72 h (Muscle uptake) of the same compound?
Its tissue uptake at 72 h is 0.04 ± 0.01 %ID/g.

What about the tissue uptake at 168 h (Muscle uptake) of the same compound?
The tissue uptake at 168 h was 0.01 %ID/g.

And the tissue uptake at 1 h (Pancreas uptake)?
The tissue uptake at 1 h was 6.36 ± 1.39 %ID/g.

What about the tissue uptake at 4 h (Pancreas uptake) of the same compound?
The tissue uptake at 4 h was 4.38 ± 1.02 %ID/g.

What about the tissue uptake at 1 h (SST2-tumor uptake) of the same compound?
The tissue uptake at 1 h was 14.2 ± 1.78 %ID/g.

And the tissue uptake at 4 h (SST2-tumor uptake)?
Its tissue uptake at 4 h is 15.5 ± 3.63 %ID/g.

And the tissue uptake at 24 h (SST2-tumor uptake)?
The tissue uptake at 24 h was 9.32 ± 2.02 %ID/g.

What about the tissue uptake at 72 h (SST2-tumor uptake) of the same compound?
Its tissue uptake at 72 h is 4.22 ± 1.43 %ID/g.

And the tissue uptake at 168 h (SST2-tumor uptake)?
The tissue uptake at 168 h was 0.79 ± 0.13 %ID/g.

What about the tissue uptake at 1 h (SST5-tumor uptake) of the same compound?
Its tissue uptake at 1 h is 1.78 ± 0.35 %ID/g.

And the tissue uptake at 4 h (SST5-tumor uptake)?
Its tissue uptake at 4 h is 1.87 ± 0.49 %ID/g.

And the tissue uptake at 24 h (SST5-tumor uptake)?
Its tissue uptake at 24 h is 0.88 ± 0.16 %ID/g.

And the tissue uptake at 72 h (SST5-tumor uptake)?
Its tissue uptake at 72 h is 0.35 ± 0.08 %ID/g.

And the tissue uptake at 168 h (SST5-tumor uptake)?
Its tissue uptake at 168 h is 0.08 ± 0.01 %ID/g.

What about the tissue uptake at 1 h (Spleen uptake) of the same compound?
The tissue uptake at 1 h was 1.29 ± 0.19 %ID/g.

What about the tissue uptake at 4 h (Spleen uptake) of the same compound?
Its tissue uptake at 4 h is 0.68 ± 0.11 %ID/g.

And the tissue uptake at 1 h (Stomach uptake)?
The tissue uptake at 1 h was 5.63 ± 0.79 %ID/g.

And the tissue uptake at 4 h (Stomach uptake)?
The tissue uptake at 4 h was 4.94 ± 0.9 %ID/g.
